Measurements taken from patent US20210139608.

Tested on: T1, MMP2-cleavable peptide linker CGPLGVRGG within the MAP-Ab conjugate (imuGlue)
T1 sequence: CGPLGVRGG

With MMP2 (matrix metalloproteinase-2) the “cumulative Ab release profile from MAP-Ab in the presence of MMP2” value was “the imuGlue may release 75% of Ab sprayed for 24 hours in the presence of MMP2” and the “emission spectrum of MAP-Ab with or without MMP2” value was “when MMP2 treatment was carried out, a blue shift was observed in the MAP-Ab emission spectrum”.
